Measured values reported in patent US20240132577A1 (US Dept. of Health and Human Services, published 2024).
Several values for one entry are separate records, joined by “and”; a condition that tells them apart may be missing. Equal entries are not always repeated. Where two headings read alike, the source gives them in different places.

B1: Nb56-tri-IgG1 (Fc fusion)
chain: QVQLQESGGGLVQAGDSLRLSCVASERTFRRYGMGWFRQAPGKEREFVAAVDRSHTKTGYADFVKGRFTISTNYENMVYLQMNSLKPEDTAVYYCAAPSYEKGSDPTSWNTDRGYDYWGQGTQVTVSSGGGGSGGGGSGGGGSQVQLQESGGGLVQAGDSLRLSCVASERTFRRYGMGWFRQAPGKEREFVAAVDRSHTKTGYADFVKGRFTISTNYENMVYLQMNSLKPEDTAVYYCAAPSYEKGSDPTSWNTDRGYDYWGQGTQVTVSSGGGGSGGGGSGGGGSQVQLQESGGGLVQAGDSLRLSCVASERTFRRYGMGWFRQAPGKEREFVAAVDRSHTKTGYADFVKGRFTISTNYENMVYLQMNSLKPEDTAVYYCAAPSYEKGSDPTSWNTDRGYDYWGQGTQVTVSSDKTHTCPPCPAPELLGGPSVFLFPPKPKDTLMISRTPEVTCVWDVSHEDPEVKFNWYVDGVEVHNAKTKPREEQYNSTYRWSVLTVLHQDWLNGKEYKCKVSNKALPAPIEKTISKAKGQPREPQVYTLPPSREEMTKNQVSLTCLVKGFYPSDIAVEWESNGQPENNYKTTPPVLDSDGSFFLYSKLTVDKSRWQQGNVFSCSVMHEALHNHYTQKSLSLSPGKHHHHHH
B2: Nb4 (VHH)
VHH: QVQLVESGGGLVQAGGSLRLSCVASGSGFEPNAMGWYRQAPGKQRELVAGITSGGNANYADSVKGRFTISRDNVKNTVYLQMNSLKPEDTAVYYCNAVGPRFNPRGSPTNYWGQGTQVTVSS
B3: Nb21 (VHH)
VHH: QVQLVESGGGLVQAGGSLRLSCAVSGLGAHRVGWFRRAPGKEREFVAAIGANGGNTNYLDSVKGRFTISRDNAKNTIYLQMNSLKPQDTAVYYCAARDIETAEYTYWGQGTQVTVSS
B4: msNb12-tri-IgG2a (Fc fusion)
chain: QVKLEESGGGSVQAGGSLRLICTAPGLTHNNCGLDWYRRAPGKEREFVSSISADGTTSYADSVKGRFTISKDKVEDTVYLQMNSLKPEDTAIYSCKTAFPYFGNSCVLDYWGQGTSVTVSSGGGGSGGGGSGGGGSQVKLEESGGGSVQAGGSLRLICTAPGLTHNNCGLDWYRRAPGKEREFVSSISADGTTSYADSVKGRFTISKDKVEDTVYLQMNSLKPEDTAIYSCKTAFPYFGNSCVLDYWGQGTSVTVSSGGGGSGGGGSGGGGSQVKLEESGGGSVQAGGSLRLICTAPGLTHNNCGLDWYRRAPGKEREFVSSISADGTTSYADSVKGRFTISKDKVEDTVYLQMNSLKPEDTAIYSCKTAFPYFGNSCVLDYWGQGTSVTVSSEPKIPQPQPKPQPQPQPQPKPQPKPEPECTCPKCPAPELLGGPSVFLFPPKPKDTLMISRTPEVTCVWDVSHEDPEVKFNWYVDGVEVHNAKTKPREEQYNSTYRWSVLTVLHQDWLNGKEYKCKVSNKALPAPIEKTISKAKGQPREPQVYTLPPSREEMTKNQVSLTCLVKGFYPSDIAVEWESNGQPENNYKTTPPVLDSDGSFFLYSKLTVDKSRWQQGNVFSCSVMHEALHNHYTQKSLSLSPGKHHHHHH

How the values were obtained:
Assay in all cases: cell-based or functional assay
[1] = biological target: T1, SARS-CoV-2 S protein (C-terminally truncated, on pseudotyped virus) (SARS-CoV-2 (Wuhan-Hu-1), UniProt P0DTC2 14-1254)
[2] = biological target: T1, SARS-CoV-2 S protein (C-terminally …); remark: listed apart in the source
[3] = biological target: SARS-CoV-2 S protein R683G (on pseudotyped virus) (SARS-CoV-2, UniProt P0DTC2 14-1254)
[4] = biological target: SARS-CoV-2 S protein K417N (on pseudotyped virus) (SARS-CoV-2, UniProt P0DTC2 14-1254)
[5] = biological target: SARS-CoV-2 S protein E484K (on pseudotyped virus) (SARS-CoV-2, UniProt P0DTC2 14-1254)
[6] = biological target: SARS-CoV-2 S protein N501Y (on pseudotyped virus) (SARS-CoV-2, UniProt P0DTC2 14-1254)
[7] = biological target: SARS-CoV-2 S protein K417N + E484K + N501Y (on pseudotyped virus) (SARS-CoV-2, UniProt P0DTC2 14-1254)
[8] = biological target: SARS-CoV-2 S protein (C-terminally truncated, on pseudotyped virus) (SARS-CoV-2 (Wuhan-Hu-1), UniProt P0DTC2 14-1254); remark: listed apart in the source

Row | Binder | IC50 (pseudovirus neutralization) [1] | IC90 (pseudovirus neutralization) [1] | IC50 (variant pseudovirus neutralization) [2] | IC50 (variant pseudovirus neutralization) [3] | IC50 (variant pseudovirus neutralization) [4] | IC50 (variant pseudovirus neutralization) [5] | IC50 (variant pseudovirus neutralization) [6] | IC50 (variant pseudovirus neutralization) [7] | IC50 (pseudovirus neutralization) [8] | IC90 (pseudovirus neutralization) [8]
1 | B1 | 3.91 ng/ml and 54.5 nM | 18.6 ng/ml and 260 nM | 43 pM | 8 pM | 21 pM | 37 pM | 28 pM | 14 pM |  | 
2 | B2 |  |  |  |  |  |  |  |  | 41 nM and 554 ng/ml | 4490 ng/ml and 332 nM
3 | B3 |  |  |  |  |  |  |  |  | 1900 ng/ml and 141 nM | 3230 ng/ml and 239 nM
4 | B4 | 4.71 ng/ml and 64.8 nM | 74 ng/ml and 1.02 µM | 91 pM | 178 pM | 68 pM | 149 pM | 82 pM | 90 pM |  | 
